From article PMC11790859

Biological target: kalium channelrhodopsin 1 from Hyphochytrium catenoides, slow-cycling mutant C110A (HcKCR1_C110A) (Hyphochytrium catenoides)
Test: cryo-EM structure

Work on “kalium channelrhodopsin 1 from Hyphochytrium catenoides, slow-cycling mutant C110A (HcKCR1_C110A) (domain or fragment)” yielded a stoichiometry N of 3.
